Source: PMC3271731 (Nature, 2011)
Like-named read-outs stand apart in the source and are kept apart here.

Key:
crystal structure [1] = molecular target: the molecule itself; test: crystal structure
crystal structure [2] = molecular target: the molecule itself; test: crystal structure; remark: listed apart in the source

Protein | stoichiometry N (crystal structure [1]) | stoichiometry N (crystal structure [2])
Pseudomonas aeruginosa 3-methylcrotonyl-CoA carboxylase α subunit (enzyme, biotinylated Lys681 (numbered by the equivalent residue of HsMCC)) MNPDYRSIQRLLVANRGEIACRVMRSARALGIGSVAVHSDIDRHARHVAEADIAVDLGGAKPADSYLRGDRIIAAALASGAQAIHPGYGFLSENADFARACEEAGLLFLGPPAAAIDAMGSKSAAKALMEEAGVPLVPGYHGEAQDLETFRREAGRIGYPVLLKAAAGGGGKGMKVVEREAELAEALSSAQREAKAAFGDARMLVEKYLLKPRHVEIQVFADRHGHCLYLNERDCSIQRRHQKVVEEAPAPGLGAELRRAMGEAAVRAAQAIGYVGAGTVEFLLDERGQFFFMEMNTRLQVEHPVTEAITGLDLVAWQIRVARGEALPLTQEQVPLNGHAIEVRLYAEDPEGDFLPASGRLMLYREAAAGPGRRVDSGVREGDEVSPFYDPMLAKLIAWGETREEARQRLLAMLAETSVGGLRTNLAFLRRILGHPAFAAAELDTGFIARHQDDLLPAPQALPEHFWQAAAEAWLQSEPGHRRDDDPHSPWSRNDGWRSALARESDLMLRCRDERRCVRLRHASPSQYRLDGDDLVSRVDGVTRRSAALRRGRQLFLEWEGELLAIEAVDPIAEAEAAHAHQGGLSAPMNGSIVRVLVEPGQTVEAGATLVVLEAMKMEHSIRAPHAGVVKALYCSEGELVEEGTPLVELDENQA | 3 | 
Pseudomonas aeruginosa 3-methylcrotonyl-CoA carboxylase β subunit (enzyme, UniProt Q9I297 1-535, looked up) MAILHTQINPRSAEFAANAATMLEQVNALRTLLGRIHEGGGSAAQARHSARGKLLVRERINRLLDPGSPFLELSALAAHEVYGEEVAAAGIVAGIGRVEGVECMIVGNDATVKGGTYYPLTVKKHLRAQAIALENRLPCIYLVDSGGANLPRQDEVFPDREHFGRIFFNQANMSARGIPQIAVVMGSCTAGGAYVPAMSDETVMVREQATIFLAGPPLVKAATGEVVSAEELGGADVHCKVSGVADHYAEDDDHALAIARRCVANLNWRKQGQLQCRAPRAPLYPAEELYGVIPADSKQPYDVREVIARLVDGSEFDEFKALFGTTLVCGFAHLHGYPIAILANNGILFAEAAQKGAHFIELACQRGIPLLFLQNITGFMVGQKYEAGGIAKHGAKLVTAVACARVPKFTVLIGGSFGAGNYGMCGRAYDPRFLWMWPNARIGVMGGEQAAGVLAQVKREQAERAGQQLGVEEEAKIKAPILEQYEHQGHPYYSSARLWDDGVIDPAQTREVLALALSAALNAPIEPTAFGVFRM |  | 6
